# From the supplement of paper PMC12667976
# ± gives the standard error.
# B1: library; numbered along this chain (parent)
# chain: MATDAALRRLLRLHRTEIAVAVDSAFPLLHALADHDVVPEDKFQETLHLKEKEGCPQAFHALLSWLLTQDSTAILDFWRVLFKDYNLERYGRLQPILDSFPKDVDLSQPRKGRKPPAVPKALVPPPRLPTKRKASEEARAAAPAALTPRGTASPGSQLKAKPPKKPESSAEQQRLPLGNGIQTMSASVQRAVAMSSGDVPGARGAVEGILIQQVFESGGSKKCIQVGGEFYTPSKFEDSGSGKNKARSSSGPKPLVRAKGAQGAAPGGGEARLGQQGSVPAPLALPSDPQLHQKNEDECAVCRDGGELICCDGCPRAFHLACLSPPLREIPSGTWRCSSCLQATVQEVQPRAEEPRPQEPPVETPLPPGLRSAGEEVRGPPGEPLAGMDTTLVYKHLPAPPSAAPLPGLDSSALHPLLCVGPEGQQNLAPGARCGVCGDGTDVLRCTHCAAAFHWRCHFPAGTSRPGTGLRCRSCSGDVTPAPVEGVLAPSPARLAPGPAKDDTASHEPALHRDDLESLLSEHTFDGILQWAIQSMARPAAPFPS
# Variants of: B1
# Test: AIRE transcriptional activation functional score (insulin promoter-GFP; nonsense median 0, synonymous median 1) (normalised score); higher = higher AIRE activity (more reporter activation)
# Conditions: with insulin promoter-GFP reporter in HEK293
# Procedure, shortened: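 Using Bxb1 recombinase, codon-optimized NNN-codon libraries for three AIRE regions were inserted into Flp-In T-REx HEK293 landing-pad cells with an insulin core promoter-GFP reporter. After integrants (mCherry+, BFP−) were sorted at day 7 and expanded for 7 days, the top 10% GFP and unselected integrant populations underwent tile-sequencing. Functional scores are wild-type-subtracted enrichments of variants in select over non-select samples. A cutoff of 10 counts per million in non-select applied, and values were rescaled (nonsense median 0, synonymous median 1) and averaged over biological replicates.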
row,Variant,AIRE transcriptional activation functional score
1,D515K,-0.501 ± 0.17
2,P56E,-1.9 ± 0.27
3,D389H,1.2 ± 0.07
4,T16L,-0.113 ± 0.4
5,T16M,0.203 ± 0.12
6,Q358P,1.05 ± 0.21
7,Q358N,1.18 ± 0.22
8,D502I,1.02 ± 0.19
9,L146Y,1.24 ± 0.09
10,Q349W,1.55 ± 0.08
11,Q349V,1.13 ± 0.22
12,P331I,1.59 ± 0.11
13,P331T,0.972 ± 0.2
14,P331K,0.702 ± 0.37
15,A500Y,0.944 ± 0.44
16,A500N,0.646 ± 0.076
17,F100D,-0.111 ± 0.43
18,F100P,1.03 ± 0.12
19,F100Q,1.26 ± 0.24
20,Q530M,-0.198 ± 0.14
21,R494K,0.735 ± 0.1
22,P27E,-0.123 ± 0.26
23,L7S,0.248 ± 0.41
24,G155N,0.154 ± 0.25

row,Variant,AIRE transcriptional activation functional score
1,A25Q,0.196 ± 0.14
2,A138N,0.5 ± 0.94
3,A73Y,0.555 ± 0.91
4,A73C,0.629 ± 0.31
5,R471W,1.12 ± 0.1
6,A193M,0.563 ± 0.053
7,E353V,1.15 ± 0.089
8,V199T,0.462 ± 0.32
9,P350S,0.947 ± 0.17
10,A343V,1.03 ± 0.1
11,M536S,0.272 ± 0.48
12,E354I,1.13 ± 0.16
13,E354Q,0.948 ± 0.093
14,A352Y,0.899 ± 0.35
15,E53N,0.151 ± 0.6
16,A145L,1.19 ± 0.45
17,A145S,1.4 ± 0.58
18,A145M,0.474 ± 0.11
19,I533R,0.266 ± 0.065
20,A265H,0.76 ± 0.37
21,A265E,0.963 ± 0.062
22,S411T,0.867 ± 0.29
23,P405N,1.22 ± 0.071
24,K52N,-0.178 ± 0.3

row,Variant,AIRE transcriptional activation functional score
1,K52D,0.601 ± 0.17
2,K52V,1.38 ± 0.28
3,L470T,0.558 ± 0.33
4,L414E,1.08 ± 0.12
5,R203T,0.744 ± 0.16
6,G421L,0.327 ± 0.17
7,A510H,0.605 ± 0.23
8,L175V,0.629 ± 0.38
9,V123C,1.27 ± 0.17
10,V123P,0.742 ± 0.58
11,T524F,0.0783 ± 0.11
12,P398H,1.24 ± 0.26
13,A532K,-0.0221 ± 0.22
14,A170F,1.69 ± 0.33
15,S278R,0.819 ± 0.16
16,V37C,-0.563 ± 0.26
17,A61P,-0.68 ± 0.6
18,A61R,0.646 ± 0.67
19,A61N,0.59 ± 0.081
20,S338R,1.2 ± 0.28
21,L67M,0.554 ± 0.29
22,L67K,0.25 ± 0.13
23,A141Q,1.24 ± 0.65
24,R113T,0.935 ± 0.28

row,Variant,AIRE transcriptional activation functional score
1,K501N,1.03 ± 0.25
2,K120Q,0.232 ± 0.33
3,V393W,1.67 ± 0.17
4,V393M,0.98 ± 0.089
5,A160S,1.14 ± 0.51
6,A160W,1.82 ± 0.051
7,S339F,0.807 ± 0.069
8,K235Q,1.04 ± 0.24
9,R456N,0.016 ± 0.075
10,R456G,1.27 ± 0.27
11,P39G,-0.241 ± 0.19
12,R9H,0.195 ± 0.13
13,D105S,-0.0361 ± 0.14
14,V487I,1.06 ± 0.14
15,K83T,0.432 ± 0.38
16,T364V,0.952 ± 0.28
17,L210P,0.65 ± 0.069
18,L370V,1.03 ± 0.26
19,L370G,1.08 ± 0.16
20,R247H,-1.26 ± 0.54
21,Q69W,-0.383 ± 0.21
22,Q69D,0.261 ± 0.43
23,S153F,1.67 ± 0.13
24,V38C,0.438 ± 0.22

row,Variant,AIRE transcriptional activation functional score
1,Q182G,0.423 ± 0.34
2,C449D,0.418 ± 0.038
3,F230M,0.801 ± 0.15
4,K131H,0.185 ± 0.12
5,R473E,1.16 ± 0.2
6,C475D,-0.0916 ± 0.039
7,A152E,-0.141 ± 0.22
8,A540V,1.11 ± 0.14
9,A134S,1.06 ± 0.4
10,A134H,0.548 ± 0.16
11,A134L,1.11 ± 0.76
12,G180H,1.31 ± 0.17
13,F82V,0.0231 ± 0.15
14,I96E,0.112 ± 0.27
15,L495F,1.18 ± 0.16
16,P129C,0.895 ± 0.2
17,P490C,1.26 ± 0.12
18,P490H,0.603 ± 0.18
19,I209V,0.66 ± 0.12
20,I209M,0.79 ± 0.098
21,Q276P,1.05 ± 0.092
22,Q276E,0.831 ± 0.28
23,S518H,0.981 ± 0.25
24,I181N,1.53 ± 0.38

row,Variant,AIRE transcriptional activation functional score
1,Q213M,-0.306 ± 0.13
2,K133R,1.43 ± 0.42
3,R513V,0.873 ± 0.29
4,G424L,1.08 ± 0.16
5,S220F,0.305 ± 0.062
6,L308P,0.912 ± 0.24
7,A493K,0.774 ± 0.22
8,A246V,1.12 ± 0.29
9,P365H,0.594 ± 0.1
10,Q262R,0.909 ± 0.23
11,E423G,1.34 ± 0.23
12,A58W,0.0998 ± 0.12
13,D297G,0.852 ± 0.18
14,D297T,0.153 ± 0.4
15,D297Q,1.32 ± 0.37
16,G227W,0.742 ± 0.041
17,T480I,0.515 ± 0.16
18,S241Q,0.992 ± 0.3
19,L385S,0.77 ± 0.32
20,A321K,1.09 ± 0.13
21,Q172H,1.81 ± 0.24
22,C337S,1.33 ± 0.29
23,Y394L,1.07 ± 0.27
24,C340F,0.877 ± 0.032

row,Variant,AIRE transcriptional activation functional score
1,C340N,1.67 ± 0.053
2,G277P,0.526 ± 0.28
3,P422I,1.26 ± 0.13
4,D70G,0.895 ± 0.36
5,G268T,0.742 ± 0.73
6,P115K,-0.166 ± 0.74
7,P115Y,0.917 ± 0.29
8,P115L,1.2 ± 0.48
9,Q94E,0.0511 ± 0.28
10,A205S,1.09 ± 0.23
11,A205P,0.728 ± 0.16
12,A140M,0.337 ± 0.19
13,S185W,0.557 ± 0.095
14,S185T,1.56 ± 0.21
15,R303C,1.23 ± 0.11
16,R303T,1.36 ± 0.21
17,F459G,0.834 ± 0.26
18,F459T,0.589 ± 0.29
19,V214S,0.447 ± 0.32
20,V214Y,1.25 ± 0.04
21,G240K,1.07 ± 0.15
22,L320M,1.03 ± 0.026
23,L320K,0.922 ± 0.16
